Entries after “also recorded” stand apart in the source; their conditions may differ.

We go through 1 molecule from patent US9587002B2, “Sequence of nucleotides and peptides GSE 24.2 of dyskerin, which can induce telomerase activity, method for obtaining same, therapeutic compositions and applications thereof” (CONSEJO SUPERIOR DE INVESTIGACIONES CIENTIFICAS, priority 2005, dated 2017).

The subject of one data set is hTR. Nature of the data set: RT-PCR of hTR in VA13 cells. To be noted: transient transfection. The class given is cell-based. As to the method:
(§1) FIG. 10.—Telomerase activity and expression levels of hTERT and hTR in the cells of patients with dyskeratosis congenita and in VA13 cells transiently transfected with the 24.2 plasmid or the pLNCX empty vector. A) Telomerase activity measured by means of the TRAP assay in the cells of patients with dyskeratosis congenita (DC-1, DC-2 and DC-3) and in the carrier parent (DC-C) following electroporation of 45 μg of the pLNCX empty plasmid (−) or the pLNCX 24.2 vector (+) by 15 million cells. B) RT-PCR of the RNA from cells of one of the patients with dyskeratosis congenita, DC3 transfected with the empty vector and DC3 transfected with the 24.2 plasmid, using oligos specific for hTERT and hTR. As a starting RNA control, oligos for the amplification of GAPDH were used. C) Telomerase activity in VA13 cells. The cells were transiently transfected with 16 μg of the control pLNCX empty vector, expressing DKC or the GSE 24.2 peptide per million cells. 24 hours later, the telomerase activity was analysed as described above, using dilutions of the protein extracts from each transfection. D) The expression levels of hTERT and hTR in VA13 cells transfected with 16 μg of the different construct per million cells. RNA levels were detected as described above. GAPDH was used as a control. […] After 24 h of transfection, the luciferase activity was analyzed as described above. […]

The target in data set [1] is telomerase (Homo sapiens, UniProt O14746). Kind of data set: Telomerase activity (TRAP) of 293T cell lines treated with cisplatin. On the set-up: endogenous in cells; host or cells: 293T cells stably transfected with empty pLNCX or pLNCX 24.2. To be noted: pre-treated 0.5 μg/ml 3 days, then 3 μg/ml cisplatin for 7 days. The class given is cell-based. The protocol:
FIG. 5.—Telomerase activity of the 293T cell lines: pLNCX and 24.2 following treatment with cisplatin. The cells were seeded in 60-mm plates, pre-treated with 0.5 μg/ml of cisplatin for 3 days and subsequently treated with cisplatin at a dose of 3 μg/ml […]. The telomerase activity was measured by means of the Intergen TRAPeze assay. The experiment was performed 3 times, with similar results.
To this end, an assay of telomerase activity was performed using the TRAP method with the pLNCX and pLNCX 24.2 cell lines (FIG. 5), pre-treating them for 3 days with 0.5 μg/ml of cisplatin; subsequently, they were treated with 3 μg/ml of cisplatin for 3 and 7 days. […]
Telomerase activity assay based on the TRAP method Wright et al., 1995). The telomerase activity was measured using the TRAPeze telomerase detection kit (Intergen) in accordance with the instruction manual. The protein concentration of each extract was quantified by means of the Bradford method using the BIORAD reagent and after performing a PCR in accordance with the manual instructions; polyacrylamide gel electrophoresis was performed with the reaction products under non-denaturing conditions and, subsequently, it was stained with Ethidium bromide for 30 minutes.

Data set [2] concerns telomerase. Kind of data set: Telomerase activity (TRAP) in cells of patients with dyskeratosis congenita. The class given is cell-based, human. As to conditions: DC-1, DC-2, DC-3 and carrier parent (DC-C) cells; 24 hours after transfection vs empty vector. The protocol: as §1, with “The cells were transiently transfected with 16 μg of the control pLNCX empty vector, expressing DKC or the GSE 24.2 peptide per million cells.” left out, “D) The expression levels of hTERT and hTR in VA13 cells transfected with 16 μg of the different construct per million cells.” left out, “above.” for “above. GAPDH was used as a control.”
Telomerase activity assay based on the TRAP method Wright et al., 1995). The telomerase activity was measured using the TRAPeze telomerase detection kit (Intergen) in accordance with the instruction manual. […]

Sequence of telomerase (Homo sapiens, UniProt O14746) (O14746 whole entry): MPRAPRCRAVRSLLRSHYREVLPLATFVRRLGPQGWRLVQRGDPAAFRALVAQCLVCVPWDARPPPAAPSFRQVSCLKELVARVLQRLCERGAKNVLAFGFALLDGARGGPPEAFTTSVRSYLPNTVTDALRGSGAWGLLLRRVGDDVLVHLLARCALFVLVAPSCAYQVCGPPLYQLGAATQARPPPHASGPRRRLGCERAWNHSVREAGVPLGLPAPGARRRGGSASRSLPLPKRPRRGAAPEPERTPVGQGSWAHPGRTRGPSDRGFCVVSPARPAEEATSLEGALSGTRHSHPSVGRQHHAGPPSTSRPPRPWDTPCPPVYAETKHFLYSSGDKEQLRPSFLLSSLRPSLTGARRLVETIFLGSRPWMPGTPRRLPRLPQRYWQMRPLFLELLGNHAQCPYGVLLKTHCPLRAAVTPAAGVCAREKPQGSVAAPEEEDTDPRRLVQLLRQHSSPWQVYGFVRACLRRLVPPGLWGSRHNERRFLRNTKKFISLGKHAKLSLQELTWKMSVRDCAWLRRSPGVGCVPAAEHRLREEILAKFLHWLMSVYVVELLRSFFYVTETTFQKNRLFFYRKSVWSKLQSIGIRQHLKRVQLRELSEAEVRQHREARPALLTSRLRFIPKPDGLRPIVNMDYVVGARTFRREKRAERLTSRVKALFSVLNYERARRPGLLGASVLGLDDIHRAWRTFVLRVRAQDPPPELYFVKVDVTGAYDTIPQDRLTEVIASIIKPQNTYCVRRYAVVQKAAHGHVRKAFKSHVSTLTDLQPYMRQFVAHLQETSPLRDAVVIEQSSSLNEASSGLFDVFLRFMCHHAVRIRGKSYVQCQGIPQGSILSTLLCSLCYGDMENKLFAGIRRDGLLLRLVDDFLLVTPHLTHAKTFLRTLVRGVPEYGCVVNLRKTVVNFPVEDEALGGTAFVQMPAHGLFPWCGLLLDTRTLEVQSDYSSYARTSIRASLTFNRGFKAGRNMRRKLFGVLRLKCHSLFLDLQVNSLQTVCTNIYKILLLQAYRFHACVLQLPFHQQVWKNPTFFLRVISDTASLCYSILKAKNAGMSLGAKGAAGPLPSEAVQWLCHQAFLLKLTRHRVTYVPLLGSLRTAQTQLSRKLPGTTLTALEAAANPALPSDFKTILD
Sequence of telomerase (Homo sapiens, UniProt O14746) (O60832 2-514 partner limits assumed): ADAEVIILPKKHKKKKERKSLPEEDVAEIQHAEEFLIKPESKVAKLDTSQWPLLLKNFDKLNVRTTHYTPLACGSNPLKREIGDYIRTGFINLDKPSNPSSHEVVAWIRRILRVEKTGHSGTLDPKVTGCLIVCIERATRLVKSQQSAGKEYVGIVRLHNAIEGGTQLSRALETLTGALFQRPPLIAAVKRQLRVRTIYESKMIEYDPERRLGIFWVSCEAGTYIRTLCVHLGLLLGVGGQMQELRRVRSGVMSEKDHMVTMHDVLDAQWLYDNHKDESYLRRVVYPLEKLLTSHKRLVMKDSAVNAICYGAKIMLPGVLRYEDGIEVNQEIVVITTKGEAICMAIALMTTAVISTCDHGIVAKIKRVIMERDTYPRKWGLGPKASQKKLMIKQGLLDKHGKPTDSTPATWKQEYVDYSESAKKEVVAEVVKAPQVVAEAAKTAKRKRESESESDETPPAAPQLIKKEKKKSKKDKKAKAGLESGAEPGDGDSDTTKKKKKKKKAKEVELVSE
Sequence of telomerase (Homo sapiens, UniProt O14746) (Q9NPE3 whole entry partner): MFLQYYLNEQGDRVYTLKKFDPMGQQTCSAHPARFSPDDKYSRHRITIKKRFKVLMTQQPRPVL
Sequence of telomerase (Homo sapiens, UniProt O14746) (Q9NX24 whole entry partner): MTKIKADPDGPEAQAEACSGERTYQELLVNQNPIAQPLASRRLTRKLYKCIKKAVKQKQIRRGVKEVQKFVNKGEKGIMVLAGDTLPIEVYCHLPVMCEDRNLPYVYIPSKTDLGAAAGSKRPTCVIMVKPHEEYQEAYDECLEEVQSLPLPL
Sequence of telomerase (Homo sapiens, UniProt O14746) (Q9NY12 whole entry partner): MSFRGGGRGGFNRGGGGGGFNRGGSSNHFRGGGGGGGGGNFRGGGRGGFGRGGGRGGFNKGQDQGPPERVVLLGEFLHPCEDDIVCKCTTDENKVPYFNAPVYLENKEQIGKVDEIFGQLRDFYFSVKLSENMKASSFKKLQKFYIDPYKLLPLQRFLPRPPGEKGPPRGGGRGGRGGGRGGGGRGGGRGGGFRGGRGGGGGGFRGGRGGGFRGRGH
Sequence of telomerase (Homo sapiens, UniProt O14746) (Q9BUR4 whole entry partner): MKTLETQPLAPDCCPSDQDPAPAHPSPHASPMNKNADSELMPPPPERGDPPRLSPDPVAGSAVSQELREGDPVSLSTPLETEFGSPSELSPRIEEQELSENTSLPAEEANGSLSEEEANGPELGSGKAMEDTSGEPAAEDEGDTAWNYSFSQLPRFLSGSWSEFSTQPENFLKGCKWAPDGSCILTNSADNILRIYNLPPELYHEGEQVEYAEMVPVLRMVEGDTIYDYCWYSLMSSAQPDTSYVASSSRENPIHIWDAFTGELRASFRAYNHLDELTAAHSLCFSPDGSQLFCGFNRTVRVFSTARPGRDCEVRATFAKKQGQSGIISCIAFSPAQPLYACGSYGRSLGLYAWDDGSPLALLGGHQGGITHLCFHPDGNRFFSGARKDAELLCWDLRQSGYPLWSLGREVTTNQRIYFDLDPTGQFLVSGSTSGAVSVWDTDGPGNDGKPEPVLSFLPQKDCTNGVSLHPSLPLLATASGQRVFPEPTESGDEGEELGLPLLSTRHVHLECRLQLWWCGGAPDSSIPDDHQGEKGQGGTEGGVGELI

B1: GSE 24.2: 165-pb cDNA fragment (nucleotides 268 to 433) of human dyskerin, SEQ ID NO1, encoding peptide SEQ ID NO2, expressed from pLNCX plasmid (nucleic acid, listed as Homo sapiens)
DNA: GGTTTCATTAATCTTGACAAGCCCTCTAACCCCTCTTCCCATGAGGTGGTAGCCTGGATTCGACGGATACTTCGGGTGGAGAAGACAGGGCACAGTGGTACTCTGGATCCCAAGGTGACTGGTTGTTTAATCGTGTGCATAGAACGAGCCACTCGCTTGGTGAAG
modifications: expressed from pLNCX plasmid; CDS (1)..(165) Sequence GSE 24.2
As for B1, the “expression of hTR RNA in VA13 cells” value in the data set with hTR is “capable of recovering”. The “inhibition of telomerase activity by cisplatin in 24.2 cell line” value in the data set with telomerase [1] is on record as “no inhibition was observed”. Also, the “telomerase activity in dyskeratosis congenita cells” value with telomerase [2] is on record as “an increase in telomerase activity was observed; also recorded: compensates for the defects in telomerase activity”.
